Experimental findings from patent US20240279318A1 (NANJING LEGEND BIOTECH, published 2024) are described below.

For experiment [1], the target named is T1, AFP158/HLA-A*02:01 complex (human).
T1 construct: biotinylated on the BSP by BirA for ELISA and panning; also called biotinylated AFP158/HLA-A*02:01 complex; Bio-AFP158
Nature of the experiment: SPR, scFv-mIgG2aFc from supernatant captured, complex as analyte. (In general: Surface plasmon resonance follows binding to a sensor surface in real time, without labels.)
Procedure: (§1) The binding affinity between selected antibodies and AFP158/HLA-A*02:01 complex was determined by surface plasmon resonance (SPR) on a BIAcore T200 instrument (GE Healthcare). The experiment was carried out as follows. The purified sdAb/scFv-mIgG2aFc protein were captured through mIgG2a-Fc onto the sensorchip. […] On-rate (kₐ) and off-rate (kd) were calculated based on association and dissociation curve, and were used to estimate the equilibrium dissociation constant (KD).
(§2) Humanized heavy chains and light chains were combined, and used to produce a series of humanized antibodies. These antibodies were synthesized as scFv-mIgG2aFc and transiently produced using HEK293 cells. The antibodies in the supernatant were subjected to SPR affinity assessment.

In experiment [2] the target is T1, AFP158/HLA-A*02:01 complex. Described as above. This is another data set of the same source.
Procedure: as §1, §2
Experiment [3] concerns the target T1, AFP158/HLA-A*02:01 complex. Nature of the experiment: SPR, crude scFv captured.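 Also: Peptide–MHC complex flowed at several concentrations over sensorchip-captured scFv, Kd derived from on- and off-rates obtained from the association and dissociation curves.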
Procedure: The experiment was carried out as follows. The crude scFv protein were captured onto the sensorchip. Different concentrations (320, 160, 40 nM) of AFP158/HLA-A*02:01 complex flowed over the sensorchip surface, and were allowed to bind the antibody fragment for 100 s followed by injection of the running buffer to allow dissociation of the complex. On-rate (kd) and off-rate (kd) were calculated based on association and dissociation curve, and were used to estimate the equilibrium dissociation constant (KD).
Experiment [4] has as its target T1, AFP158/HLA-A*02:01 complex. The experiment can be described thus: SPR; vs AS170036 VL1VH1.
Experiment [5] has as its target OR51B6 peptide/HLA-A*02:01 complex (recombinant) (human). Nature of the experiment: SPR.
Experiment [6] concerns the target ZNF566 peptide/HLA-A*02:01 complex (recombinant) (human). The experiment can be described thus: SPR.
The target in experiment [7] is RCL1 peptide/HLA-A*02:01 complex (recombinant) (human, UniProt P16213 21-119 (Pongo pygmaeus entry)). The experiment can be described thus: SPR.
Experiment [8] has as its target CDC14A peptide/HLA-A*02:01 complex (recombinant) (human). Nature of the experiment: SPR.
The target of experiment [9] is OR1I1 peptide/HLA-A*02:01 complex (recombinant) (human). The experiment can be described thus: SPR.
Experiment [10] has as its target NR2E1 peptide/HLA-A*02:01 complex (recombinant) (human). Nature of the experiment: SPR.
Experiment [11] concerns the target ATG9A peptide/HLA-A*02:01 complex (recombinant) (human). Nature of the experiment: SPR.
For experiment [12], the target named is BRCA2 peptide/HLA-A*02:01 complex (recombinant) (human). Nature of the experiment: SPR.
In experiment [13] the target is PTP4A1 peptide/HLA-A*02:01 complex (recombinant) (human). The experiment can be described thus: SPR.
Experiment [14] deals with RP1 peptide/HLA-A*02:01 complex (recombinant) (human, UniProt P16213 21-119 (Pongo pygmaeus entry)). Nature of the experiment: SPR.
Experiment [15] has as its target T1, AFP158/HLA-A*02:01 complex. Nature of the experiment: SPR; vs AS170036 VL1VH1. This is another data set of the same source.
The target of experiment [16] is T1, AFP158/HLA-A*02:01 complex. The experiment can be described thus: SPR, scFv-mIgG2aFc from supernatant captured, complex as analyte. The source holds these as a separate data set.
Procedure: as §1, §2

One may read the Kd as the equilibrium constant for the complex coming apart. High values mean a looser complex, low ones a tighter complex. Usually koff stands for a measure of how fast the partners let go of each other. High values mean fast dissociation, low ones slow dissociation. One may read the kon as the rate constant with which the complex forms.

Read-outs that look alike come from different tables or passages of the source. Bounds are passed on as bounds.

B1: AS179723 VL1g1VH1g1 scFv-mIgG2aFc (Fc fusion, not shown: a dimerising Fc or GST)
scFv: QSVLTQPPSASGTPGQRVTISCSGSSNNIGGNYVNWYQQLPGTAPKLLIYDNKNRPSGVPDRFSGSKSGTSASLAISGLQSEDEADYYCASWDDSLSAVVFGGGTKLTVLGGGGSGGGGSGGGGSEVQLVESGGGLVQPGGSLRLSCAASGFTFLNYAMSWVRQAPGKGLEWVSSNSGAGSTYYADSVKGRFTISRDNSKNTLYLQMNSLRAEDTAVYYCAKGTNVGSWSSLHYWGQGTLVTVSS
Turning to B1, in experiment [1], the dissociation constant Kd was determined as 320 nM, the koff turned out to be 0.029 s⁻¹ and the kon stood at 91000 M⁻¹ s⁻¹.

B2: AS179723 VL1g1VH1g1-N73Y scFv-mIgG2aFc (Fc fusion, not shown: a dimerising Fc or GST)
chain: QSVLTQPPSASGTPGQRVTISCSGSSNNIGGNYVNWYQQLPGTAPKLLIYDNKNRPSGVPDRFSGSKSGTSASLAISGLQSEDEADYYCASWDDSLSAVVFGGGTKLTVLGGGGSGGGGSGGGGSEVQLVESGGGLVQPGGSLRLSCAASGFTFLNYAMSWVRQAPGKGLEWVSSNSGAGSTYYADSVKGRFTISRDYSKNTLYLQMNSLRAEDTAVYYCAKGTNVGSWSSLHYWGQGTLVTVSS
notes: Humanized
The molecule B2 had a dissociation constant Kd in [1] of 56 nM.

B3: AS179723 VL1VH1g1 scFv-mIgG2aFc (Fc fusion, not shown: a dimerising Fc or GST)
scFv: QSVLTQPPSASGTPGQRVTISCTGSSNNIGGNYVNWYQQLPGTAPKLLIYDNKNRPSGVPDRFSGSKSGTSASLAISGLQSEDEADYYCASWDDSLSAVVFGGGTKLTVLGGGGSGGGGSGGGGSEVQLVESGGGLVQPGGSLRLSCAASGFTFLNYAMSWVRQAPGKGLEWVSSNSGAGSTYYADSVKGRFTISRDNSKNTLYLQMNSLRAEDTAVYYCAKGTNVGSWSSLHYWGQGTLVTVSS
In experiment [1], B3 gave a Kd of 310 nM, an off-rate constant (koff) of 0.03 s⁻¹ and a kon of 99000 M⁻¹ s⁻¹.

B4: AS179732 VL1VH1g1 scFv-mIgG2aFc (Fc fusion, not shown: a dimerising Fc or GST; small tags and cut ends)
scFv: QSVLTQPPSASGTPGQRVTISCTGSSSNIGGNYVNWYQQLPGTAPKLLIYDNSNRASGVPDRFSGSKSGTSASLAISGLQSEDEADYYCASWDDSLSGAVFGGGTKLTVLGGGGSGGGGSGGGGSEVQLVESGGGLVQPGGSLRLSCAASGFTFLNYAMSWVRQAPGKGLEWVSSNSGAGSTYYADSVKGRFTISRDNSKNTLYLQMNSLRAEDTAVYYCAKGTNVGSWSSLHYWGQGTLVTVSS
For the molecule B4, in experiment [2], binding was put at a Kd of 520 nM, the dissociation rate constant (koff) turned out to be 0.065 s⁻¹ and the on-rate constant (kon) worked out at 130000 M⁻¹ s⁻¹.

B5: AS179723 VL1g1VH1 scFv-mIgG2aFc (Fc fusion, not shown: a dimerising Fc or GST)
scFv: QSVLTQPPSASGTPGQRVTISCSGSSNNIGGNYVNWYQQLPGTAPKLLIYDNKNRPSGVPDRFSGSKSGTSASLAISGLQSEDEADYYCASWDDSLSAVVFGGGTKLTVLGGGGSGGGGSGGGGSEVQLVESGGGLVQPGGSLRLSCAASGFTFLNYAMSWVRQAPGKGLEWVSSNSGAGSTYYSDSVKGRFTISRDNSKNTLYLQMNSLRAEDTAVYYCAKGTNVGSWSSLHYWGQGTLVTVSS
In [1], B5 came in with a Kd of 360 nM, a koff of 0.034 s⁻¹ and a kon of 93000 M⁻¹ s⁻¹.

B6: AS179723 VL1VH1 scFv-mIgG2aFc (Fc fusion, not shown: a dimerising Fc or GST)
scFv: QSVLTQPPSASGTPGQRVTISCTGSSNNIGGNYVNWYQQLPGTAPKLLIYDNKNRPSGVPDRFSGSKSGTSASLAISGLQSEDEADYYCASWDDSLSAVVFGGGTKLTVLGGGGSGGGGSGGGGSEVQLVESGGGLVQPGGSLRLSCAASGFTFLNYAMSWVRQAPGKGLEWVSSNSGAGSTYYSDSVKGRFTISRDNSKNTLYLQMNSLRAEDTAVYYCAKGTNVGSWSSLHYWGQGTLVTVSS
Consider B6, for which, in [1], the Kd turned out to be 320 nM, the koff came out at 0.031 s⁻¹ and the on-rate (kon) is 98000 M⁻¹ s⁻¹.

B7: AS179732 VL1VH1 scFv-mIgG2aFc (Fc fusion, not shown: a dimerising Fc or GST)
scFv: QSVLTQPPSASGTPGQRVTISCTGSSSNIGGNYVNWYQQLPGTAPKLLIYDNSNRASGVPDRFSGSKSGTSASLAISGLQSEDEADYYCASWDDSLSGAVFGGGTKLTVLGGGGSGGGGSGGGGSEVQLVESGGGLVQPGGSLRLSCAASGFTFLNYAMSWVRQAPGKGLEWVSSNSGAGSTYYSDSVKGRFTISRDNSKNTLYLQMNSLRAEDTAVYYCAKGTNVGSWSSLHYWGQGTLVTVSS
In [2], B7 returned a Kd of 440 nM, a dissociation rate constant (koff) of 0.056 s⁻¹ and a kon of 130000 M⁻¹ s⁻¹.

B8: AS179732 VL1g1VH1g1-N73Y scFv-mIgG2aFc (Fc fusion, not shown: a dimerising Fc or GST)
chain: QSVLTQPPSASGTPGQRVTISCSGSSSNIGGNYVNWYQQLPGTAPKLLIYDNSNRASGVPDRFSGSKSGTSASLAISGLQSEDEADYYCASWDDSLSGAVFGGGTKLTVLGGGGSGGGGSGGGGSEVQLVESGGGLVQPGGSLRLSCAASGFTFLNYAMSWVRQAPGKGLEWVSSNSGAGSTYYADSVKGRFTISRDYSKNTLYLQMNSLRAEDTAVYYCAKGTNVGSWSSLHYWGQGTLVTVSS
notes: Humanized
The molecule B8 showed a Kd in [2] of 54 nM.

B9: AS179732 VL1g1VH1 scFv-mIgG2aFc (Fc fusion, not shown: a dimerising Fc or GST; small tags and cut ends)
scFv: QSVLTQPPSASGTPGQRVTISCSGSSSNIGGNYVNWYQQLPGTAPKLLIYDNSNRASGVPDRFSGSKSGTSASLAISGLQSEDEADYYCASWDDSLSGAVFGGGTKLTVLGGGGSGGGGSGGGGSEVQLVESGGGLVQPGGSLRLSCAASGFTFLNYAMSWVRQAPGKGLEWVSSNSGAGSTYYSDSVKGRFTISRDNSKNTLYLQMNSLRAEDTAVYYCAKGTNVGSWSSLHYWGQGTLVTVSS
In the case of B9, in experiment [2], binding was characterised by a dissociation constant (Kd) of 450 nM, the dissociation rate constant (koff) was 0.056 s⁻¹ and the on-rate constant (kon) came to 120000 M⁻¹ s⁻¹.

B10: AS179732 VL1g1VH1g1 scFv-mIgG2aFc (Fc fusion, not shown: a dimerising Fc or GST; small tags and cut ends)
scFv: QSVLTQPPSASGTPGQRVTISCSGSSSNIGGNYVNWYQQLPGTAPKLLIYDNSNRASGVPDRFSGSKSGTSASLAISGLQSEDEADYYCASWDDSLSGAVFGGGTKLTVLGGGGSGGGGSGGGGSEVQLVESGGGLVQPGGSLRLSCAASGFTFLNYAMSWVRQAPGKGLEWVSSNSGAGSTYYADSVKGRFTISRDNSKNTLYLQMNSLRAEDTAVYYCAKGTNVGSWSSLHYWGQGTLVTVSS
B10: in experiment [2], the dissociation constant (Kd) turned out to be 450 nM, the koff was determined as 0.057 s⁻¹ and the kon worked out at 130000 M⁻¹ s⁻¹.

B11: AS170036 VL1VH1-VHS57M (scFv)
scFv: QSALTQPRSVSGSPGQSVTISCAGTSSDVGSENYVSWYQQHPGKAPKLMIYQVNKRASGVPDRFSGSKSGNTASLTISGLQAEDEADYYCASYRSSDHNIVFGGGTKLTVLGGGGSGGGGSGGGGSEVQLVESGGGLVQPGGSLRLSCAASGFTFSSYAMSWVRQAPGKGLEWVSTINSGTGMPYYADSVKGRFTISRDNSKNTLYLQMNSLRAEDTAVYYCAKNFFDGSWFLGPPAMDYWGQGTLVTVSSHHHHHH
As to B11, in experiment [3], the dissociation constant (Kd) stood at 90 nM. In addition, the Affinity increase in experiment [4] was 2.7 fold; in experiment [15], above 2 fold. Moreover, the binding result in experiment [5], in experiment [6], in experiment [7], in [8], in experiment [9] and in [10] was “no binding (tested: all below 3.5 RU)” in each case. Moreover, the binding result in experiment [11], in experiment [12], in experiment [13] and in experiment [14] was “no binding (tested: all below 3.5 RU)” each time.

B12: AS170036 VL1VH2 scFv-mIgG2aFc (Fc fusion, not shown: a dimerising Fc or GST)
scFv: QSALTQPRSVSGSPGQSVTISCAGTSSDVGSENYVSWYQQHPGKAPKLMIYQVNKRASGVPDRFSGSKSGNTASLTISGLQAEDEADYYCASYRSSDHNIVFGGGTKLTVLGGGGSGGGGSGGGGSEVQLVESGGGLVQPGGSLRLSCTASGFTFSSYAMSWVRQAPGKGLEWVSTINSGTGSPYYADSVKGRFTISRDNSKNTLYLQMNSLRAEDTAMYYCAKNFFDGSWFLGPPAMDYWGQGTLVTVSS
As to B12, in experiment [16], binding was characterised by a dissociation constant (Kd) of 380 nM, the koff stood at 0.071 s⁻¹ and the kon amounted to 190000 M⁻¹ s⁻¹.

B13: AS170036 VL2VH1 scFv-mIgG2aFc (Fc fusion, not shown: a dimerising Fc or GST)
scFv: QSALTQPRSVSGSPGQSVTISCAGTSSDVGSENYVSWYQQHPGKAPKLLIYQVNKRASGIPDRFSGSKSGNTASLTISGLQAEDEADYYCASYRSSDHNIVFGGGTKLTVLGGGGSGGGGSGGGGSEVQLVESGGGLVQPGGSLRLSCAASGFTFSSYAMSWVRQAPGKGLEWVSTINSGTGSPYYADSVKGRFTISRDNSKNTLYLQMNSLRAEDTAVYYCAKNFFDGSWFLGPPAMDYWGQGTLVTVSS
In [16], B13 displayed a Kd of 340 nM, a koff of 0.095 s⁻¹ and a kon of 280000 M⁻¹ s⁻¹.

B14: AS170036 VL2VH2 scFv-mIgG2aFc (Fc fusion, not shown: a dimerising Fc or GST)
scFv: QSALTQPRSVSGSPGQSVTISCAGTSSDVGSENYVSWYQQHPGKAPKLLIYQVNKRASGIPDRFSGSKSGNTASLTISGLQAEDEADYYCASYRSSDHNIVFGGGTKLTVLGGGGSGGGGSGGGGSEVQLVESGGGLVQPGGSLRLSCTASGFTFSSYAMSWVRQAPGKGLEWVSTINSGTGSPYYADSVKGRFTISRDNSKNTLYLQMNSLRAEDTAMYYCAKNFFDGSWFLGPPAMDYWGQGTLVTVSS
In [16], B14 came in with a Kd of 390 nM, a koff of 0.072 s⁻¹ and a kon of 190000 M⁻¹ s⁻¹.
